The numbers were not newly measured in US20220241413A1, “COMBINATION THERAPIES USING CD-38 ANTIBODIES” (Takeda Pharmaceutical Company Limited, priority 2019, published 2022), which cites them from elsewhere.

Where two headings read alike, the source gives them in different places.

For series [1] the following is noted: cited from earlier work.
For another series, the system named is NK cells. As to conditions: IV, patients with RRMM, doses up to 24 mg/kg; cited from earlier work.
For series [2] the following is noted: IV, patients with RRMM, doses up to 24 mg/kg; cited from earlier work.
The conditions of series [3]: cited from earlier work. This is another data set of the same source.
The test system of a further series is RBCs and platelets. As to conditions: cited from earlier work.
Where [4] appears, read: SC formulation with hyaluronidase.

“MOR202: anti-CD38 IgG1 antibody, used clinically via IV infusion”: in series [1] (RRMM, IV infusion), the “Grade ≥3 TEAE: hypertension” value is 9%, the “Grade ≥3 TEAE: leukopenia” value is listed as 11%, the “Grade ≥3 TEAE: lymphopenia” value is 18% and the “TEAE at any grade: anemia” value is 34%. In addition, in series [1] (RRMM, IV infusion), the “TEAE at any grade: fatigue” value is 32%, the “TEAE at any grade: infusion-related reactions (IRRs)” value is on record as 30%, the “TEAE at any grade: leukopenia” value is on record as 30% and the “TEAE at any grade: lymphopenia” value was 25%. Further, in series [1] (RRMM, IV infusion), the “TEAE at any grade: nausea” value is 25% and the “patients with Grade ≥3 TEAEs” value is reported as 64%. Moreover, the infections in series [1] (in vivo, iv) is reported as 59%.

As to “daratumumab: first approved anti-CD38 drug, anti-CD38 IgG1 antibody”, the “comparable depletion of NK cells (to >90% with AB79)” value with NK cells is on record as “not achieved”. Also, in series [2], the “mean Cmax” value is over 500 µg/mL. Also, in series [3] (IV administration), the “incidence of IRR, Grade 3 or higher” value is given as at most 9% and the “incidence of IRR, all grades” value is listed as at least 50%. Further, in series [3] (setting [4]), the “incidence of IRR, Grade 3 or higher” value is 8% and the “incidence of IRR, all grades” value is recorded as 16%. In series [3] (SC), the “Grade 3 and 4 TEAE: hypertension” value was 8%; the “Grade 3 and 4 TEAE: lymphopenia” value is recorded as 20%; the “Grade 3 and 4 TEAE: neutropenia” value is 8%; the “Grade 3 and 4 TEAE: thrombocytopenia” value is reported as 8%. Besides, the “injection site reactions (induration, erythema, discoloration, hematomas)” value in series [3] (SC) is 16.7 % of patients. In series [3] (binding to CD38 on RBCs), the “persistence of positive indirect Coombs test results after the last infusion” value was “up to 6 months”. In addition, the “patients with severe and serious IRRs, including anaphylactic reactions” value in series [3] (human, in vivo) is “approximately half”. In addition, in the series with RBCs and platelets, the “binding to RBCs and platelets” value is recorded as “strongly bind”.

Turning to isatuximab: anti-CD38 IgG1 antibody, the “binding to RBCs and platelets” value in the series on RBCs and platelets is “strongly bind”.
